Experimental data: PMC10002728

What was measured:
Experiment in all cases: SPR
[1] = molecular target: B. hermsii strain HS1 FbpC C-terminal complement inhibitory domain, residues 212-374 (Borrelia hermsii strain HS1)
[2] = molecular target: FbpC-C R248A (Borrelia hermsii strain HS1)
[3] = molecular target: FbpC-C H252A (Borrelia hermsii strain HS1)

Row | Binder | Kd [1] | koff [1] | kon [1] | Kd [2] | koff [2] | kon [2] | Kd [3] | koff [3] | kon [3]
1 | human complement C1r, zymogen form (enzyme) SIPIPQKLFGEVTSPLFPKPYPNNFETTTVITVPTGYRVKLVFQQFDLEPSEGCFYDYVKISADKKSLGRFCGQLGSPLGNPPGKKEFMSQGNKMLLTFHTDFSNEENGTIMFYKGFLAYYQAVDLDECASRSKSGEEDPQPQCQHLCHNYVGGYFCSCRPGYELQEDTHSCQAECSSELYTEASGYISSLEYPRSYPPDLRCNYSIRVERGLTLHLKFLEPFDIDDHQQVHCPYDQLQIYANGKNIGEFCGKQRPPDLDTSSNAVDLLFFTDESGDSRGWKLRYTTEIIKCPQPKTLDEFTIIQNLQPQYQFRDYFIATCKQGYQLIEGNQVLHSFTAVCQDDGTWHRAMPRCKIKDCGQPRNLPNGDFRYTTTMGVNTYKARIQYYCHEPYYKMQTRAGSRESEQGVYTCTAQGIWKNEQKGEKIPRCLPVCGKPVNPVEQRQRIIGGQKAKMGNFPWQVFTNIHGRGGGALLGDRWILTAAHTLYPKEHEAQSNASLDVFLGHTNVEELMKLGNHPIRRVSVHPDYRQDESYNFEGDIALLELENSVTLGPNLLPICLPDNDTFYDLGLMGYVSGFGVMEEKIAHDLRFVRLPVANPQACENWLRGKNRMDVFSQNMFCAGHPSLKQDACQGDSGGVFAVRDPNTDRWVATGIVSWGIGCSRGYGFYTKVLNYVDWIKKEMEEED | 1.2 nM | 5.4e-05 s⁻¹ | 44000 M⁻¹ s⁻¹ | 13 nM | 0.00063 s⁻¹ | 69000 M⁻¹ s⁻¹ |  |  | 
2 | human complement C1r, activated form (enzyme) SIPIPQKLFGEVTSPLFPKPYPNNFETTTVITVPTGYRVKLVFQQFDLEPSEGCFYDYVKISADKKSLGRFCGQLGSPLGNPPGKKEFMSQGNKMLLTFHTDFSNEENGTIMFYKGFLAYYQAVDLDECASRSKSGEEDPQPQCQHLCHNYVGGYFCSCRPGYELQEDTHSCQAECSSELYTEASGYISSLEYPRSYPPDLRCNYSIRVERGLTLHLKFLEPFDIDDHQQVHCPYDQLQIYANGKNIGEFCGKQRPPDLDTSSNAVDLLFFTDESGDSRGWKLRYTTEIIKCPQPKTLDEFTIIQNLQPQYQFRDYFIATCKQGYQLIEGNQVLHSFTAVCQDDGTWHRAMPRCKIKDCGQPRNLPNGDFRYTTTMGVNTYKARIQYYCHEPYYKMQTRAGSRESEQGVYTCTAQGIWKNEQKGEKIPRCLPVCGKPVNPVEQRQRIIGGQKAKMGNFPWQVFTNIHGRGGGALLGDRWILTAAHTLYPKEHEAQSNASLDVFLGHTNVEELMKLGNHPIRRVSVHPDYRQDESYNFEGDIALLELENSVTLGPNLLPICLPDNDTFYDLGLMGYVSGFGVMEEKIAHDLRFVRLPVANPQACENWLRGKNRMDVFSQNMFCAGHPSLKQDACQGDSGGVFAVRDPNTDRWVATGIVSWGIGCSRGYGFYTKVLNYVDWIKKEMEEED | 0.3 nM | 1.4e-05 s⁻¹ | 48000 M⁻¹ s⁻¹ | 0.19 nM | 9.4e-06 s⁻¹ | 45000 M⁻¹ s⁻¹ | 2.4 nM | 0.00012 s⁻¹ | 51000 M⁻¹ s⁻¹
